# Reference: article PMC11898703
# Molecular target: FliW-T25 (Clostridioides difficile) (UniProt Q18CX4)
# Test: two-hybrid; bacterial two-hybrid (BACTH) in E. coli BTH101 read by β-galactosidase assay on cell lysates (10^10 CFU, bead beating in Z buffer, ONPG, ΔOD420 over 1 h)
substance,measurement,value
TcdR-T18 (natural protein),fold increase in β-galactosidase activity over the TcdR-T18 + T25 control,2 fold
